The supplement of paper PMC5998384

Assays:
HeLa Kyoto [1] = experiment: melting temperature (median over replicates), in situ; higher = more thermally stable
HeLa Kyoto [2] = experiment: solubility in G1/S (NP-40 vs SDS abundance) (log2 ratio); higher = more soluble; conditions: cell cycle stage: G1/S
HeLa Kyoto [3] = experiment: solubility change mitosis vs G1/S (difference of NP-40 vs SDS log2 ratios) (log2 ratio difference); higher = more soluble in mitosis
HeLa Kyoto [4] = experiment: thermal stability score vs G1/S (z-score of summed log2 fold changes over temperatures); higher = more thermally stable than in G1/S
[5] = cell cycle stage: early G1 (4.5 h after nocodazole release)
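Throughout, for melting temperature (median over replicates), in situ: HeLa Kyoto cells synchronized by double thymidine or nocodazole block, proteins quantified by TMT10plex mass spectrometry, three independent biological replicates.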
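Throughout, for solubility change mitosis vs G1/S (difference of NP-40 vs SDS log2 ratios): synchronized HeLa Kyoto cells (double thymidine block for G1/S, nocodazole release for mitosis), protein amounts in NP-40 versus SDS lysates quantified by mass spectrometry, three biological replicates.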
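Throughout, for solubility in G1/S (NP-40 vs SDS abundance): HeLa Kyoto cells arrested at G1/S by double thymidine block, proteins quantified by TMT10plex mass spectrometry in mild NP-40 versus SDS extracts, three biological replicates.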
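Throughout, for thermal stability score vs G1/S (z-score of summed log2 fold changes over temperatures): synchronized HeLa Kyoto cells, proteins quantified by TMT10plex mass spectrometry, three biological replicates, mitosis taken 0.5 h after nocodazole release, G1/S directly after double thymidine block.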

Row | Sequence | melting temperature (HeLa Kyoto [1]; cell cycle stage: G1/S) [°C] | melting temperature (HeLa Kyoto [1]; cell cycle stage: mitosis) [°C] | solubility in G1/S (log2) (HeLa Kyoto [2]) | solubility change mitosis (log2) (HeLa Kyoto [3]) | thermal stability score (HeLa Kyoto [4]; [5]) | thermal stability score (HeLa Kyoto [4]; cell cycle stage: mitosis)
1 | MAACGRVRRMFRLSAALHLLLLFAAGAEKLPGQGVHSQGQGPGANFVSFVGQAGGGGPAGQQLPQLPQSSQLQQQQQQQQQQQQPQPPQPPFPAGGPPARRGGAGAGGGWKLAEEESCREDVTRVCPKHTWSNNLAVLECLQDVREPENEISSDCNHLLWNYKLNLTTDPKFESVAREVCKSTITEIKECADEPVGKGYMVSCLVDHRGNITEYQCHQYITKMTAIIFSDYRLICGFMDDCKNDINILKCGSIRLGEKDAHSQGEVVSCLEKGLVKEAEEREPKIQVSELCKKAILRVAELSSDDFHLDRHLYFACRDDRERFCENTQAGEGRVYKCLFNHKFEESMSEKCREALTTRQKLIAQDYKVSYSLAKSCKSDLKKYRCNVENLPRSREARLSYLLMCLESAVHRGRQVSSECQGEMLDYRRMLMEDFSLSPEIILSCRGEIEHHCSGLHRKGRTLHCLMKVVRGEKGNLGMNCQQALQTLIQETDPGADYRIDRALNEACESVIQTACKHIRSGDPMILSCLMEHLYTEKMVEDCEHRLLELQYFISRDWKLDPVLYRKCQGDASRLCHTHGWNETSEFMPQGAVFSCLYRHAYRTEEQGRRLSRECRAEVQRILHQRAMDVKLDPALQDKCLIDLGKWCSEKTETGQELECLQDHLDDLVVECRDIVGNLTELESEDIQIEALLMRACEPIIQNFCHDVADNQIDSGDLMECLIQNKHQKDMNEKCAIGVTHFQLVQMKDFRFSYKFKMACKEDVLKLCPNIKKKVDVVICLSTTVRNDTLQEAKEHRVSLKCRRQLRVEELEMTEDIRLEPDLYEACKSDIKNFCSAVQYGNAQIIECLKENKKQLSTRCHQKVFKLQETEMMDPELDYTLMRVCKQMIKRFCPEADSKTMLQCLKQNKNSELMDPKCKQMITKRQITQNTDYRLNPMLRKACKADIPKFCHGILTKAKDDSELEGQVISCLKLRYADQRLSSDCEDQIRIIIQESALDYRLDPQLQLHCSDEISSLCAEEAAAQEQTGQVEECLKVNLLKIKTELCKKEVLNMLKESKADIFVDPVLHTACALDIKHHCAAITPGRGRQMSCLMEALEDKRVRLQPECKKRLNDRIEMWSYAAKVAPADGFSDLAMQVMTSPSKNYILSVISGSICILFLIGLMCGRITKRVTRELKDR [GLG1] | 56.3 | 56.5 | -0.0893 | -0.0491 | -1.04 | -1.91
2 | MAADSEPESEVFEITDFTTASEWERFISKVEEVLNDWKLIGNSLGKPLEKGIFTSGTWEEKSDEISFADFKFSVTHHYLVQESTDKEGKDELLEDVVPQSMQDLLGMNNDFPPRAHCLVRWYGLREFVVIAPAAHSDAVLSESKCNLLLSSVSIALGNTGCQVPLFVQIHHKWRRMYVGECQGPGVRTDFEMVHLRKVPNQYTHLSGLLDIFKSKIGCPLTPLPPVSIAIRFTYVLQDWQQYFWPQQPPDIDALVGGEVGGLEFGKLPFGACEDPISELHLATTWPHLTEGIIVDNDVYSDLDPIQAPHWSVRVRKAENPQCLLGDFVTEFFKICRRKESTDEILGRSAFEEEGKETADITHALSKLTEPASVPIHKLSVSNMVHTAKKKIRKHRGVEESPLNNDVLNTILLFLFPDAVSEKPLDGTTSTDNNNPPSESEDYNLYNQFKSAPSDSLTYKLALCLCMINFYHGGLKGVAHLWQEFVLEMRFRWENNFLIPGLASGPPDLRCCLLHQKLQMLNCCIERKKARDEGKKTSASDVTNIYPGDAGKAGDQLVPDNLKETDKEKGEVGKSWDSWSDSEEEFFECLSDTEELKGNGQESGKKGGPKEMANLRPEGRLYQHGKLTLLHNGEPLYIPVTQEPAPMTEDLLEEQSEVLAKLGTSAEGAHLRARMQSACLLSDMESFKAANPGCSLEDFVRWYSPRDYIEEEVIDEKGNVVLKGELSARMKIPSNMWVEAWETAKPIPARRQRRLFDDTREAEKVLHYLAIQKPADLARHLLPCVIHAAVLKVKEEESLENISSVKKIIKQIISHSSKVLHFPNPEDKKLEEIIHQITNVEALIARARSLKAKFGTEKCEQEEEKEDLERFVSCLLEQPEVLVTGAGRGHAGRIIHKLFVNAQRAAAMTPPEEELKRMGSPEERRQNSVSDFPPPAGREFILRTTVPRPAPYSKALPQRMYSVLTKEDFRLAGAFSSDTSFF [RAB3GAP1] | 48.9 | 49.4 | -0.0664 | -0.113 | -0.345 | 0.335
3 | MAAEKQVPGGGGGGGSGGGGGSGGGGSGGGRGAGGEENKENERPSAGSKANKEFGDSLSLEILQIIKESQQQHGLRHGDFQRYRGYCSRRQRRLRKTLNFKMGNRHKFTGKKVTEELLTDNRYLLLVLMDAERAWSYAMQLKQEANTEPRKRFHLLSRLRKAVKHAEELERLCESNRVDAKTKLEAQAYTAYLSGMLRFEHQEWKAAIEAFNKCKTIYEKLASAFTEEQAVLYNQRVEEISPNIRYCAYNIGDQSAINELMQMRLRSGGTEGLLAEKLEALITQTRAKQAATMSEVEWRGRTVPVKIDKVRIFLLGLADNEAAIVQAESEETKERLFESMLSECRDAIQVVREELKPDQKQRDYILEGEPGKVSNLQYLHSYLTYIKLSTAIKRNENMAKGLQRALLQQQPEDDSKRSPRPQDLIRLYDIILQNLVELLQLPGLEEDKAFQKEIGLKTLVFKAYRCFFIAQSYVLVKKWSEALVLYDRVLKYANEVNSDAGAFKNSLKDLPDVQELITQVRSEKCSLQAAAILDANDAHQTETSSSQVKDNKPLVERFETFCLDPSLVTKQANLVHFPPGFQPIPCKPLFFDLALNHVAFPPLEDKLEQKTKSGLTGYIKGIFGFRS [SRP68] | 50.7 | 49.4 | -0.033 | 0.209 | -0.295 | -0.156
4 | MAAEPLTELEESIETVVTTFFTFARQEGRKDSLSVNEFKELVTQQLPHLLKDVGSLDEKMKSLDVNQDSELKFNEYWRLIGELAKEIRKKKDLKIRKK [S100A13] | 53.4 | 52 | -0.421 | 0.294 | -6.56 | -6.62
5 | MAAESGSDFQQRRRRRRDPEEPEKTELSERELAVAVAVSQENDEENEERWVGPLPVEATLAKKRKVLEFERVYLDNLPSASMYERSYMHRDVITHVVCTKTDFIITASHDGHVKFWKKIEEGIEFVKHFRSHLGVIESIAVSSEGALFCSVGDDKAMKVFDVVNFDMINMLKLGYFPGQCEWIYCPGDAISSVAASEKSTGKIFIYDGRGDNQPLHIFDKLHTSPLTQIRLNPVYKAVVSSDKSGMIEYWTGPPHEYKFPKNVNWEYKTDTDLYEFAKCKAYPTSVCFSPDGKKIATIGSDRKVRIFRFVTGKLMRVFDESLSMFTELQQMRQQLPDMEFGRRMAVERELEKVDAVRLINIVFDETGHFVLYGTMLGIKVINVETNRCVRILGKQENIRVMQLALFQGIAKKHRAATTIEMKASENPVLQNIQADPTIVCTSFKKNRFYMFTKREPEDTKSADSDRDVFNEKPSKEEVMAATQAEGPKRVSDSAIIHTSMGDIHTKLFPVECPKTVENFCVHSRNGYYNGHTFHRIIKGFMIQTGDPTGTGMGGESIWGGEFEDEFHSTLRHDRPYTLSMANAGSNTNGSQFFITVVPTPWLDNKHTVFGRVTKGMEVVQRISNVKVNPKTDKPYEDVSIINITVK [PPWD1] | 49.7 | 49.8 | -0.381 | -0.0306 | 0.382 | 0.58
